Measurements taken from PMC12274486, “A glyoxal-specific aldehyde signaling axis in Pseudomonas aeruginosa that influences quorum sensing and infection” (Nature Communications, 2025).
Where a chain is given by its changes, count along the chain named. In names and notes the source's numbering stands. Several values for one entry are separate records, joined by “and”; a condition that tells them apart may be missing. Equal entries are not always repeated.

Experiments:
[1] = target: T1, ArqI (PA0709), Aldehyde responsive quorum-sensing Inhibitor (Pseudomonas aeruginosa, UniProt Q9I5L9); assay: X-ray crystallography and mass spectrometry of Arg49 adduct; format: binding; details: covalent; Arg49 in chains C, D, E; hemiaminal or carboxymethylarginine adduct (+58 amu)
T1 construct: full length (98 residues), expressed in E. coli as His6-SUMO fusion, SUMO tag cut, N-terminal SGGG left; hexamer; numbering from Met1

PqsA (PqsAFL) = target: T2, PqsA (PqsAFL) (Pseudomonas aeruginosa, UniProt Q9I4X3); assay: anthraniloyl-CoA formation, absorbance at […] nm; format: biochemical; details: assay with added ArqI
T2 construct: full length, expressed in E. coli T7 Express with 6x-His-CPD tag, tag cut

[2] = target: T3, PqsA full-length protein, purified (Pseudomonas aeruginosa MPAO1, UniProt Q9I4X3 1-517); assay: other fluorescence titration; details: both partners purified
T3 construct: also called PqsAFL; FL
T3 sequence: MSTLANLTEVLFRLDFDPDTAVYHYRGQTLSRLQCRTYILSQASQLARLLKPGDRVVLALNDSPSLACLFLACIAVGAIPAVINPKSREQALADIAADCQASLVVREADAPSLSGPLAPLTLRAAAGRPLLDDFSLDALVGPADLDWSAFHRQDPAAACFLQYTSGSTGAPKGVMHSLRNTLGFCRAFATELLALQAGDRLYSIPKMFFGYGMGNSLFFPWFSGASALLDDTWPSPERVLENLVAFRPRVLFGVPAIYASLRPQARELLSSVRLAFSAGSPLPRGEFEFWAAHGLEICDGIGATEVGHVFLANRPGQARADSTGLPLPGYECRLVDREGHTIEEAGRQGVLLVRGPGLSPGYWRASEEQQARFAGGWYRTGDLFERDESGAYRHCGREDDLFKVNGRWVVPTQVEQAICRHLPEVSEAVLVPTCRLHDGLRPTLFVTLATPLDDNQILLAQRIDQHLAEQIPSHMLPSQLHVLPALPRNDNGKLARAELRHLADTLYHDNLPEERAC

[3] = target: the molecule itself; assay: crystal structure; native ArqI, crystals from 50 mM sodium acetate pH 5.0, 12% PEG 4000; C 222_1 cell, 6 subunits in the asymmetric unit, 2.0 Å
[4] = target: the molecule itself; assay: SEC; HiLoad Superdex 75 16/600 pg or Superose 6 Increase 10/300 GL; 2 mL at 10 mg/mL; 50 mM Tris-Cl pH 8.0, 150 mM NaCl, 1 mM βME (a buffer with 500 mM NaCl, pH 7.4, is also named); RT
crystal structure = target: the molecule itself; assay: crystal structure

With `O=CC=O` [GO, glyoxal] the “X-ray crystallography and mass spectrometry of Arg49 adduct” value [1] was “A glyoxal modification was observed on Arg49 for three subunits (chains C, D and E)”.

In the case of `Nc1ccccc1C(=O)O` [anthranilate], the “anthraniloyl-CoA formation, absorbance at 375 nm” value (PqsA (PqsAFL); with CoA and ATP) is reported as “purified PqsA protein with CoA, ATP, and anthranilate”.

For `CC(C)(COP(=O)(O)OP(=O)(O)OC[C@H]1O[C@@H](n2cnc3c(N)ncnc32)[C@H](O)[C@@H]1OP(=O)(O)O)[C@@H](O)C(=O)NCCC(=O)NCCS` [CoA, coenzyme A], the “anthraniloyl-CoA formation, absorbance at 375 nm” value (PqsA (PqsAFL); with anthranilate and ATP) was “purified PqsA protein with CoA, ATP, and anthranilate”.

B1: Aldehyde responsive quorum-sensing Inhibitor (ArqI), wild type, purified (natural protein)
chain: SGGGMTYHVLVQFDVPSDKREAFAAAGLFDANGSLQNEPGTLRFEVIRDENNRNRFYLDEVYEDEAAFLQHCRNETIARFYELIDSYAFGPLFLFKGYRVEG
notes: also called PA0709; WT ArqI
In the case of B1, the Kd [2] is reported as 43 µM and the “stoichiometry N” value [3] is reported as 6.

B2: ArqI P87G variant, purified (natural protein)
chain: B1 chain with P91G
notes: source: E. coli, purified as the wild type
In the case of B2, the “stoichiometry N” value [4] is reported as 2.

B3: ArqI R49Q variant, purified (natural protein)
chain: B1 chain with R53Q
notes: as for B2
For B3, the “stoichiometry N” value [4] was 6 and 2.

B4: ArqI R16A variant, purified (natural protein)
chain: B1 chain with R20A
modifications: in the crystal: βME-modified Cys68
notes: source: E. coli, purified as the wild type (Ni-NTA, ULP1 cleavage, SEC)
For B4, the “stoichiometry N” value (crystal structure) was 6 and the “stoichiometry N” value [4] was 2.
